According to paper PMC5120866 (Cancer research, 2016):

Target: Integrin β3 (human (endogenous in ovarian cancer …, UniProt P05106 27-788))
Assay: co-IP

Sequence of Integrin β3 (human (P05106 27-788): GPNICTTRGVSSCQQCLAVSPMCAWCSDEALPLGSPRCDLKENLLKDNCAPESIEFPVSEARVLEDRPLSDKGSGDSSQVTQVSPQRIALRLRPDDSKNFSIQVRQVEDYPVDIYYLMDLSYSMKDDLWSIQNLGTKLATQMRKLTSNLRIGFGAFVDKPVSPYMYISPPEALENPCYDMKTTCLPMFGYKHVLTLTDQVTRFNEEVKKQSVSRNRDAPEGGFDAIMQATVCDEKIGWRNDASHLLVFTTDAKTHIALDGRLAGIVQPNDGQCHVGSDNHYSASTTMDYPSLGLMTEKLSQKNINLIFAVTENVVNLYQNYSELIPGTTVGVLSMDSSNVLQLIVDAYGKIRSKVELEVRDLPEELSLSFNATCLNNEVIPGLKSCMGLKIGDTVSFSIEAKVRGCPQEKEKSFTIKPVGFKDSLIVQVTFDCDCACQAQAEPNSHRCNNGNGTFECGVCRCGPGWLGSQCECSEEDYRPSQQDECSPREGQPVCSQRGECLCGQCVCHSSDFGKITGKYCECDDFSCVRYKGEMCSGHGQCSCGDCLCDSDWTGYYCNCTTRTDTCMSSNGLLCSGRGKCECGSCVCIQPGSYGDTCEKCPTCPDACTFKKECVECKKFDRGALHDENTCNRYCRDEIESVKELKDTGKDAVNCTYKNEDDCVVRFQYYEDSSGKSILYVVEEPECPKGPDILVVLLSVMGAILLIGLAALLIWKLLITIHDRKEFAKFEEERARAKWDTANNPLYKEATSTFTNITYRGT

B1: EGFL6 (wild-type, FLAG-EGFL6) (ligand, human, UniProt Q8IUX8-1 22-553, looked up)
chain: NAASARHHGLLASARQPGVCHYGTKLACCYGWRRNSKGVCEATCEPGCKFGECVGPNKCRCFPGYTGKTCSQDVNECGMKPRPCQHRCVNTHGSYKCFCLSGHMLMPDATCVNSRTCAMINCQYSCEDTEEGPQCLCPSSGLRLAPNGRDCLDIDECASGKVICPYNRRCVNTFGSYYCKCHIGFELQYISGRYDCIDINECTMDSHTCSHHANCFNTQGSFKCKCKQGYKGNGLRCSAIPENSVKEVLRAPGTIKDRIKKLLAHKNSMKKKAKIKNVTPEPTRTPTPKVNLQPFNYEEIVSRGGNSHGGKKGNEEKMKEGLEDEKREEKALKNDIEERSLRGDVFFPKVNEAGEFGLILVQRKALTSKLEHKDLNISVDCSFNHGICDWKQDREDDFDWNPADRDNAIGFYMAVPALAGHKKDIGRLKLLLPDLQPQSNFCLLFDYRLAGDKVGKLRVFVKNSNNALAWEKTTSEDEKWKTGKIQLYQGTDATKSIIFEAERGKGKTGEIAVDGVLLVSGLCPDSLLSVDD
fold co-immunoprecipitation against EGFL6^RGE: 4.6 fold
